Measurements: patent US20230176070A1

target: glutathione S-transferase [GST: P08515]; test: indirect ELISA, GST coated
Sequence (P08515 whole entry): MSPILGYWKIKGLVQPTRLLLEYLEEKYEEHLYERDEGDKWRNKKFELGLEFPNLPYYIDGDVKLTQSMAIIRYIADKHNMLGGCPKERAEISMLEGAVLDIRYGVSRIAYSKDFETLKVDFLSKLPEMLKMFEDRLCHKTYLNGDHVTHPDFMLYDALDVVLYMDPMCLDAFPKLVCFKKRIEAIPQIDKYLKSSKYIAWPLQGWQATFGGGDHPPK

Binder	ELISA affinity (LogIC50 (oD450nm))
G50 (VHH) VHH: EVQLVESGGGLVQAGGSLRLSCAASGRTFSRYHMGWFRQAPGKERDVVAAISWSGDSTYYADSVKGRFTISKDNAKNTVYLQMDSLKPEDTAVYYCATLSGWDGDTIFPAGSWGQGTQVTVSS	1.09
G20 (VHH) VHH: DVQLVESGGGLVQAGGSLRLSCAASERTFSRYMLGWFRQAPGKEREFVGVMGWSDSDTYYGDAVKGRFTISRDNVKNTIYLQMKSLKPEDTAVYYCAASAYGSTRNHKLYEYWGQGTQVTVSS	2.43
G86 (VHH) VHH: EVQLVESGGGLVQAGDSLRLSCAASGRTFSSYTMGWFRQAPGKEREFVAGIRWSGGSTYFTNYEDSVKGRFTISKDNAKNTVFLQMNSLRPEDTAVYYCAFTGHYSTYDSPQRYDYWGQGTQVTVSS	5.54
G27 (VHH) VHH: DVQLVESGGDLVQAGGSLRLSCSASGNIFKINDMDWYRQAPGKQRELVARISSSGSTNYADSVKGRFTISRDNGKNTVYLQMNRVKPEDTAVYYCNADVQVSRNYEYEYWGQGTQVTVSS	1.36
G41 (VHH) VHH: DVQLVESGGGLVQAGGSLRLSCVASGHTVSNYAMAWFRQAPGKEREFVAGISWRASITYYRDSVKGRFTISRDNAKNTVYLQMSSLKPEDTAVYYCASDKTHYVSRGTSLVEYDYWGQGTQVTVSS	1.02
G96 (VHH) VHH: DVQLVESGGGLVQAGGSLKLSCAAFGVTFDINTIAWYRQAPGKQREFVAHITSGGTTYYADSVKARFTMSRDSAKNTVYLQMNNLKPEDTAVYYCNVNPTWPYSGEVDYWGQGTQVTVSS	6.77
G51 (VHH) VHH: QVQLVESGGGLVQAGGSLKLSCAASGITFSINTIGWYRQAPGKQREFVAHITSDSTTYYADSVKARFTISRDSAKNTVHLQMNNLKPEDTAVYYCNVNPTWPYGGEVDYWGQGTQVTVSS	4.45
G80 (VHH) VHH: QVQLVESGGGLVQAGASLRLSCAASRGTFSSYTMGWFRQAPGKERLFVASISRDGGTTYYADSVKGRFTISRDNAENILYLQMNSLKPEDTAVYYCAAASRHPSTWEVWGLEYYYWGQGTQVTVSS	4.43
G91 (VHH) VHH: EVQLVESGGGLVQAGGSLRLSCAASGRTFSDYPMAWFRQALGKEREFLATISTSGSRTMYADSVKGRFTISRDNAKNMMYLQMNSLKPEDAAVYYCAARQGSYYSDYNRALPGEYHYWGQGTQVTVSS	1.15
G49 (VHH) VHH: EVQLVESGGGLVQAGGSLRLSCAASRSTFSINAAGWYRQAPGKQRELVAAISSGGSANYADSVKGRFIISRDNAKNTVYLQMNSLKPEDTAVYYCRVPYYRDDGYEYYSWGQGTQVTVSS	5.54
G30 (VHH) VHH: QVQLVESGGGLVQAGGSLRLSCAASGRTINNYDMGWFRQAPGKEREFVAAITWSGRDTNYADSVKGRFTVSRDDAKNTVYLQMNTLSPEDTAVYYCASARIQFYRLVAATRTDYSYWGQGTQVTVSS	4.86
G37 (VHH) VHH: EVQLVESGGGLVQAGDSLRLSCVASGDTFTSYTVGWFRQAPGKEQEFVAGISWSGRSTDYADFVKGRATISKDIAKVSLQMNALKPEDTAVYSCAAKKVDWSSDYVTNYDYDYRGRGTQVTVSS	1.78
G97 (VHH) VHH: EVQLVESGGGLVQAGGSLRLSCTASRSTFRVNPAGWYRQAPGKERELVARITSGGSTNYADSVKGRFTISRDNAKNTVYLQMNSLKPEDTAVYYCNVPCYMEDGYEHDAWGQGTQVTVSS	3.3
G12 (VHH) VHH: QVQLVESGGGLVQAGGSLRLSCAASRSTFRINAAGWYRQAPGKERELVARISSGGSTNYADSVKGRFTISRDNAKNTVYLQMNSLKPEDTAVYYCNVPYYREDGYEYDAWGQGTQVTVSS	4.21
G89 (VHH) VHH: EVQLVESGGGLVQAGGSLSLSCAASGSINSINAMGWFRQAPGKQRELVATITRGGSTNYADSVKGRFTISIDNAKNTVYLQMNSLKPEDTAVYYCNADRGTDDGWLYDYWGQGTQVTVSS	5.74
G16 (VHH) VHH: EVQLVESGGGLVQPGGSLRLSCAASGSTFSINAIGWYRQAPGKEREFVAALRWPGNIWYYADFVEGRITISRDNAKNTVYLQMNSLKPEDTAVYYCAARPENRGSYRDAATYDFWGQGTQVTVSS	5.68
G44 (VHH) VHH: DVQLVESGGGLVQAGGSLRLSCVASGPIFSFSTGGWYRQAPGKQRELVAALTGGGNTNYADSVKGRFTISRDNAKNTVYLQMNLLKPEDTAVYYCQVMYYSGYDGYESTSWGQGTQVTVSS	3.06

Binder	ELISA affinity (LogIC50 (oD450nm))
G1 (VHH) VHH: QVQLVESGGGLVQAGGSLRLSCAAPGSTFSTNIIAWYRQPPGKQRELVAAIGGPGSTNYADSVKGRFTISRDNAKNTGYLQMKSLKPDDTAVYYCNMVTQRGNEYWGQGTQVTVSS	2.93
G93 (VHH) VHH: QVQLVESGGGLVQPGGSLRLSCAASGSGFSSSIIGWHRQAPGKQRELVAAIGGPGSTNYADSVKGRFTISRDNAKNTAYLQMNNLKPEDSAVYYCEATTRSGREYWGQGTQVTVSS	2.16
G25 (VHH) VHH: EVQLVESGGGLVQAGGSLRLSCAASGRTFSGRTFSDYPMAWFRQAPGKEREFLATISTSGSRTYYADSVKGRFTISRDNAKDTVYLQMNSLKPEDAAIYYCAARQGSYYSDYNRALPGEYDYWGQGTQVTVSS	1.57
G78 (VHH) VHH: DVQLVESGGGLVQAGGSLRLSCTASQSILYINVMGWYRQAPGKQRELVAEIPTGGNTDYADSVKGRFTISRDNVKNTVSLQMNSLKPEDTAVYYCNVRGGVLSPYDYWGQGTQVTVSS	2.08
G45 (VHH) VHH: EVQLVESGGGLVQPGGSLRLSCAASGSIFSINSMGWYRQAPGKQRELVAAITSGGSTNYANSVKGRFTISRNNARNTVWLQMNSLKPEDTAVYYCNADLNVVRGYSGDYHGSSDYWGQGTQVTVSS	3.17
G79 (VHH) VHH: DVQLVESGGGLVQAGGSLRLSCATSGRTFSTYAAGWFRQRPGKEREFVATIHWNDGRTLYADSVKGRFTLSRDNAQNTVYLQMNSLKPEDTAVYYCAAYTYRIGSYDVSTSQGYDYWGQGTQVTVSS	2.07
G98 (VHH) VHH: QVQLVESGGGLVQAGDSLRLSCATSGRTFSTYAAGWFRQRPGKEREFVATIHWNDGRTLYADSVKGRFTLSRDNAQNTVYLQMNSLKPEDTAVYYCAASTYRIGSYDVSTSQGYDYWGQGTQVTVSS	4.67
G43 (VHH) VHH: EVQLVESGGGLVQAGGSLRLSCATSGRTSSTYAMGWFRQRPGKEREFVATIHWGVGSTIYADSVKGRFTLSRDNAQNTVYLQMNSLKPEDTAVYYCAASTYRIGSYDVSTSQGYNYWGQGTQVTVSS	4.32
G8 (VHH) VHH: QVQLVESGGGLVQAGGSLRLSCAASGITSSIASMGWFRQAPGKEEEFVARIRWNTDNTYYADSVKGRFTISRDNAQNTVYLQMNRLKPEDTAVYYCVARRGWSDLLYDYRGQGTQVTVSS	4.66
G14 (VHH) VHH: EVQLVESGGGLVQAGGSLRLSCAASGSTFDTNPIGWYRQAPGKQRDLVAMITSGGHTNYADSVKGRFTISRDNAKNTVYLQMNSLKPEDTAVYYCTVPHYREDGYEYHFWGQGTQVTVSS	5.27
G15 (VHH) VHH: QVQLVESGGGLVQAGGSLRLSCAASGSTFDTNPIGWYRQAPGKQRDLVAMITSGGHTNYADSVKGRFTISRDNAKNTVYLQMNSLKPEDTAVYYCTVPHYREDGYEYHCWGQGTQVTVSS	4.61
G19 (VHH) VHH: QVQLVESGGGLVQAGGSLRLSCAASGSTFSTNAVDWYRQAPGNQRDLVATITSGGHTNYADSVKGRFTISRDNAKNTVYLQMNSLKPEDTAVYYCAVPHYREDGYEYRFWGQGTQVTVSS	9
G42 (VHH) VHH: HVQLVESGGGFVQAGGSLRLSCEASGRTFNVYTMGWFRQAPGKEREFVGSISWNGGSTYYADSVKGRFTISRDNAKNTVYLQMNSLEPEDTAVYYCAARRQSHLRLDLSVIDAWGKGTQVTVSS	2.63
G23 (VHH) VHH: QVQLVESGGGLVQPGGSLRLSCAASGFTFSVNTMSWVRQAPGKGREWVSGIESHGNTYYSDSVKGRFTISRDNAKNTLYLQMNSLKPEDTAVYYCATGIYGTTRNWGQGTQVTVSS	2.54
G90 (VHH) VHH: DVQLVESGGGLVQAGGSLRLSCAASGLTFSNYAMGWFRQAPGKEREFAAGITWNGGASHYADSVKGRFTISRDNAQNTVYLQMNSLKPEDTAVYYCAARLGSVAYPGLRYDYWGQGTQVTVSS	5.83
G39 (VHH) VHH: HVQLVESGGELVQSGSSLRLSCAASGFDLDDYAIGWFRQAPGKEREGVSCTSTSDGPTSYLDSVKGRFTFSRDNAKNTLYLQMNSLKPEDTAVYYCAAISHIFAEDAPAMGLCWDQRSAFWYWGQGTQVTVSS	1.65
